Laboratory results taken from doi:10.64898/2025.12.08.693079.

Legend:
[1] = target: purified 20S core peptidase (CP) (S. cerevisiae) (UniProt P21242); assay: NADH-coupled ATPase displacement assay
[2] = target: purified 20S core peptidase (CP) (S. cerevisiae) (UniProt P21242); assay: Suc-LLVY-AMC peptidase activity titration

UniProt P21242, sequence (P21242 whole entry, looked up): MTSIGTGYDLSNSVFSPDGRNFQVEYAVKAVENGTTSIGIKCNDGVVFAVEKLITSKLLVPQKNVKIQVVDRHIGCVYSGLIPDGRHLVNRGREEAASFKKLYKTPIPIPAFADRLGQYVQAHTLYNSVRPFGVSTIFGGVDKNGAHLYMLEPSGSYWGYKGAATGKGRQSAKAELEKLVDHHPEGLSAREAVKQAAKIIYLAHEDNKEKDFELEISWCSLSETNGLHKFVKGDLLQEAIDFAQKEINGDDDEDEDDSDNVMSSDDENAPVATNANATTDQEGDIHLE

IC50 [1]: 3000 nM | Kd [2]: 65 nM
Substance: 3x-Flag-tagged Blm10 (from UniProt P43583 1-2143) (natural protein)
